The source of these data is patent US20230333108, “APTAMER-BASED POINT-OF-CARE ASSAY DEVICES AND METHODS” (The Regents of the University of California, published 2023).

Series [1] addresses SARS-CoV-2 nucleocapsid (N) protein (SARS-CoV-2, UniProt P0DTC9 P0DTC9:1-419). As to the kind of experiment: competition. As to conditions: tags: Sino Biological; label: 5'-biotin.
Series [2] deals with SARS-CoV-2 spike (S) protein (SARS-CoV-2, UniProt P0DTC2 P0DTC2:14-1213). The series can be described thus: competition. As to conditions: tags: Sino Biological; label: 5'-biotin.

B1: N-aptamer (anti-N protein aptamer) (ssDNA)
DNA: TTTTTTGCAATGGTACGGTACTTCCGGATGCGGAAACTGGCTAATTGGTGAGGCTGGGGCGGTCGTGCAGCAAAAGTGCACGCTACTTTGCTAA
For the molecule B1, the binding result in series [1] is reported as “binds”.

B2: S-aptamer (anti-S protein aptamer) (ssDNA)
DNA: TTTTTTCAGCACCGACCTTGTGCTTTGGGAGTGCTGGTCCAAGGGCGTTAATGGACA
As to B2, the binding result in series [2] is on record as “binds”.
